Experiments:
[1] = biological target: WT FcγRIIIa (glycosylated, expressed by HEK293 cells) (UniProt P08637)
[2] = biological target: Mut FcγRIIIa (engineered, non-glycosylated Fcγ receptor IIIa) (UniProt P08637); assay: SPR; van't Hoff analysis: temperature dependence of KD; Mut FcγRIIIa on the surface, antibody fractions as analyte
[3] = biological target: Mut FcγRIIIa (non-glycosylated); assay: SPR; Biacore T200; FcγRIIIa (WT or Mut) captured on a Ni2+-loaded NTA sensor chip at 350 RU; Rituximab fractions injected as analyte at 30 μL/min; PBS with 0.005% Tween-20; global fit, 1:1 Langmuir model; KD = koff/kon

Substance | EC50 of FcγRIIIa activation (NFAT-driven luciferase in Jurkat/FcγRIIIa/NFAT-Luc cells with Daudi cells; corresponds to ADCC) [1] | dH [2] | Kd [3]
Rituximab (Roche), before separation (antibody) | 0.13 µg/mL |  | 
Rituximab fraction Peak 1 of the FcγRIIIa column (antibody) | 0.2 µg/mL | -13.3 kcal/mol | 
Rituximab, peak 3 of the FcγRIIIa-immobilized column (antibody) |  |  | 701 nM

Continued, values first:

EC50 of FcγRIIIa activation (NFAT-driven luciferase in Jurkat/FcγRIIIa/NFAT-Luc cells with Daudi cells; corresponds to ADCC) [1] | dH [2] | Kd [3] | Substance
0.19 µg/mL | -13.3 kcal/mol |  | Rituximab fraction Peak 2 of the FcγRIIIa column (antibody)
0.05 µg/mL | -13.1 kcal/mol |  | Rituximab fraction Peak 3 of the FcγRIIIa column (antibody)
 |  | 1490 nM | Rituximab, peak 1 of the FcγRIIIa-immobilized column (antibody)
 |  | 1010 nM | Rituximab, peak 2 of the FcγRIIIa-immobilized column (antibody)

— publication PMC5834517
